Source: patent publication US20160251440A1 (Ablynx, published 2016)

T1: recombinant IL-3Rα ectodomain (human, UniProt P26951 19-305)
T1 construct: extracellular domain; also called recombinant IL-3Ra; biotinylated-IL-3Rα ectodomain
T1 sequence (looked up): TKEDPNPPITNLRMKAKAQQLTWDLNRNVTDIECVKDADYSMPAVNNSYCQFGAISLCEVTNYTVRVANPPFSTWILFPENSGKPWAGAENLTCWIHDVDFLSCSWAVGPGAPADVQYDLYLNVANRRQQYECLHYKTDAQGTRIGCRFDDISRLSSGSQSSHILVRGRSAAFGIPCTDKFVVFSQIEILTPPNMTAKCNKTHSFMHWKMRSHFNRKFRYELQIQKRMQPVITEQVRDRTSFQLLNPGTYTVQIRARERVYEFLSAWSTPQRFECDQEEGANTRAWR

T2: recombinant human CEACAM5 (human, UniProt P06731 35-685)
T2 construct: also called hCEACAM-5; R&D Systems 4128-CM
T2 sequence (looked up): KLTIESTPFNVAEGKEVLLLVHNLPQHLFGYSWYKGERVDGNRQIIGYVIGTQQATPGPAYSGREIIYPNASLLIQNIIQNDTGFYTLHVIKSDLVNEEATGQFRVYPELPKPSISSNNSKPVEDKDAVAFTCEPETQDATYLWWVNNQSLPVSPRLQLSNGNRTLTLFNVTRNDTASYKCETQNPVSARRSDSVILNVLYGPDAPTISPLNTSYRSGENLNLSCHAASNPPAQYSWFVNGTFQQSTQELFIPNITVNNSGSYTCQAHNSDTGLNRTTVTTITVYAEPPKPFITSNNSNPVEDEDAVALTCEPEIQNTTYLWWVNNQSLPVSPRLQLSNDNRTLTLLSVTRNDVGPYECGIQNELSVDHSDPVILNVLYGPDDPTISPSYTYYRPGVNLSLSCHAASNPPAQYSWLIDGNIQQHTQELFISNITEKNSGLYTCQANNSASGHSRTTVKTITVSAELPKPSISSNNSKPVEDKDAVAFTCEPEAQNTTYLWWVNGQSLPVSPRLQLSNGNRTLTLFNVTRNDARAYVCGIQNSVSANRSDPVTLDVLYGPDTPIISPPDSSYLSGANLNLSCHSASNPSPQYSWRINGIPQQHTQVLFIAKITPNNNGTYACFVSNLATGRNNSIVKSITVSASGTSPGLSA


Tests used:
[1] = biological target: T3, human IL-3Rα (CD123), cell-expressed (human, UniProt P26951 19-378); experiment: FACS, MOLM-13 cells
T3 construct: whole, on cells; also called IL-3Ra; Hek-IL-3Rα

[2] = biological target: T1, recombinant IL-3Rα ectodomain; experiment: SPR ProteOn, immobilised IL-3Rα ectodomain
[3] = biological target: T1, recombinant IL-3Rα ectodomain; experiment: competition ELISA, coated mAb 7G3 + biotinylated IL-3Rα ectodomain
[4] = biological target: T3, human IL-3Rα (CD123), cell-expressed; experiment: flow cytometry on Molm-13 cells; EC50(M) printed in the legend box beside the curves
[5] = biological target: T1, recombinant IL-3Rα ectodomain; experiment: ELISA on recombinant IL-3Ra ectodomain (lower right panel)
[6] = biological target: human CXCR4 (on cells, viral lipoparticles or membrane extracts) (human, UniProt P61073 1-352); experiment: cell-based or functional assay
[7] = biological target: CXCR4 and CD4 co-expressed on cells (MOLM-13, THP-1, MT-4, PBMC; Jurkat CD4 low) (human, UniProt P61073 1-352; P01730 26-458); experiment: cell-based or functional assay
[8] = biological target: T1, recombinant IL-3Rα ectodomain; experiment: ELISA on recombinant IL-3Ra ectodomain (panel 'IL-3Ra ELISA', lower left)
[9] = biological target: T4, human IL12Rβ1, cell-expressed (human, UniProt P42701 24-662); experiment: flow cytometry on isolated CD8+ T cells of donor D863, anti-Flag detection
T4 construct: whole, on cells; in the context of the heterodimeric receptor; also called IL12Rb1

[10] = biological target: T2, recombinant human CEACAM5; experiment: SPR Biacore T100, immobilised hCEACAM-5

T3 sequence (P26951 19-378): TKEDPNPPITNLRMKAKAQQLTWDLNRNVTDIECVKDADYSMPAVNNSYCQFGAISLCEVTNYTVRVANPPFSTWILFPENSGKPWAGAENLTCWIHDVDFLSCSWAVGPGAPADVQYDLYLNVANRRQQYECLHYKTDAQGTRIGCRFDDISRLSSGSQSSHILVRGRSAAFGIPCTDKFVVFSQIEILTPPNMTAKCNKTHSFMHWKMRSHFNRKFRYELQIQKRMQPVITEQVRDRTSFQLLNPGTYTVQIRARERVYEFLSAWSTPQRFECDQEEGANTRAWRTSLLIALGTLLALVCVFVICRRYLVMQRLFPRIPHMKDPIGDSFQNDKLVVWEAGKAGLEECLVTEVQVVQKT
CXCR4 and CD4 co-expressed on cells (MOLM-13, THP-1, MT-4, PBMC; Jurkat CD4 low), sequence (P61073 whole entry, chain 1 of 2, other chains not shown, the tested form may be a part): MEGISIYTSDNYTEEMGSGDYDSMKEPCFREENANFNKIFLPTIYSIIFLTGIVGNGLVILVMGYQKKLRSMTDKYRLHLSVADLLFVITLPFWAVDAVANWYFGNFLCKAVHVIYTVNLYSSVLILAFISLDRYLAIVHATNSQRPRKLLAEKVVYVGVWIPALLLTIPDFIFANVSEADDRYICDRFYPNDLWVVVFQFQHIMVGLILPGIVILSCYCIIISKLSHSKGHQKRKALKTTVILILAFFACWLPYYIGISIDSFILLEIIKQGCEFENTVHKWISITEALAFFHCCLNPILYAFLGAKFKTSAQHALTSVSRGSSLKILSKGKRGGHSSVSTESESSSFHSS
human CXCR4 (on cells, viral lipoparticles or membrane extracts), sequence (P61073 whole entry): as the sequence (P61073 whole entry, chain 1 of 2, other chains not shown, the tested form may be a part) above

| Binder | EC50 [1] [nM] | Kd [2] [nM] | koff [2] [s⁻¹] | kon [2] [M⁻¹ s⁻¹] | EC50 [4] [nM] | IC50, CXCL-12 chemotaxis, Jurkat E6-1 [6] [nM] | other results |
| --- | --- | --- | --- | --- | --- | --- | --- |
| 55C05 (VHH) VHH: EVQLVESGGGLVPAGDSLRLSCVASGRSLNTYTMGWFRQAPGKECEFVAAINWNGVYRDYADSAKGRFTASRDNAMNTVFLQMNSLKPEDTAVYFCATATQGWDRHTEPSDFGSWGLGTQVTVSS | 31.2 | 59 | 0.00741 | 126000 | 4100 |  | IC50 [3]: 190 nM |
| 57A07-35GS-14D09 (bispecific antibody, FLAG3-His6 also made; also called CD123#1-CXCR4#1; 57A07-14D09) EVQLVESGGGLVQAGGSLRLSCAASGSIFSGNVMGWYRRQAPGKEREWVAAIASGGSIYYRDSVKGRFTISRDNAKNTVYLQMNSLKPEDTAVYYCNSHPPTLPYWGQGTLVTVSSGGGGSGGGGSGGGGSGGGGSGGGGSGGGGSGGGGSEVQLVESGGGLVQAGGSLRLSCVASGISSSKRNMGWYRQAPGKQRESVATISSGGNKDYTDAVKDRFTISRDTTKNTVYLQMNSLKPEDTAVYYCKIEAGTGWATRRGYTYWGQGTLVTVSS |  |  |  |  |  | 210 | EC50 (read off the curve) [5]: ~0.5 nM; Fold inc. vs CXCR4#1, Jurkat E6-1 [6]: 0.05 fold |
| 51D09 (VHH) VHH: EVQLVESGGGLVQPGGSLRLSCAASGSIFSGNTMGWYRQAPGKQRELVAAISSGGSTDYADSVKGRFTISRDNSKNTVYLQMNSLRPEDTAVYYCNAAILLYRLYGYEEGDYWGLGTLVTVSS | 15.3 | 13.6 | 0.000516 | 37800 | 16 |  |  |
| 03F11-9GS-281F12 (bispecific antibody) EVQLVESGGGSVQPGGSLTLSCGTSGRTFNVMGWFRQAPGKEREFVAAVRWSSTGIYYTQYADSVKSRFTISRDNAKNTVYLEMNSLKPEDTAVYYCAADTYNSNPARWDGYDFRGQGTQVTVSSGGGGSGGGGSEVQLVESGGGLVQAGDSLRLSCAASGRAFSRYAMGWFRQAPGKEREFVAAIGWGPSKTNYADSVKGRFTISRDNAKNTVYLQMNTLKPEDTAVYSCAAKFVNTDSTWSRSEMYTYWGQGTQVTVSS |  |  |  |  |  |  | IC50, HIV-1 BaL (R5), PBMC [7]: > 666 nM; IC50, HIV-1 NL4.3 (X4), MT-4 [7]: 14.9 nM; IC50, HIV-1 NL4.3 (X4), PBMC [7]: 17 nM; IC50, HIV-1 NL4.3 (X4), U87 [7]: > 3330 nM |
| 55A01-35GS-14D09 (bispecific antibody, FLAG3-His6 also made; also called CD123#2-CXCR4#1; 55A01-14D09) EVQLVESGGGSVQAGGSLRLSCTTSGRALNMYVMGWFRQAPGNEREFVAATSSSGGSTSYPDSVKGRFTISRDNAKNTVYLQMNSLKPEDTAAYRCAASPYVSTPTMNILEEYRYWGQGTLVTVSSGGGGSGGGGSGGGGSGGGGSGGGGSGGGGSGGGGSEVQLVESGGGLVQAGGSLRLSCVASGISSSKRNMGWYRQAPGKQRESVATISSGGNKDYTDAVKDRFTISRDTTKNTVYLQMNSLKPEDTAVYYCKIEAGTGWATRRGYTYWGQGTLVTVSS |  |  |  |  |  | 85 | EC50 (read off the curve) [8]: ~1 nM; Fold inc. vs CXCR4#1, Jurkat E6-1 [6]: 0.12 fold; Fold inc. vs CXCR4#1, MOLM-13 [6]: 0.03 fold; IC50, CXCL-12 chemotaxis, MOLM-13 [6]: 290 nM |
| 55F03 (VHH) VHH: EVQLVESGGGLVQAGGPLRLSCAASGRTFSSYVMGWFRQAPGKEREFVAAIYWSNGKTQYTDSVKGRFTISGDNAKNTVYLQMNSLNPEDTAVYYCVADKDETGFRTLPIAYDYWGLGTQVTVSS | 113 | 115 | 0.00487 | 42500 | 350 |  |  |
| 50F07 (VHH) VHH: EVQLVESGGGLVQPGGSLRLSCTGSGSTFSINAMGWYRQAPGKQRELVAAITSGGRTNYADSVKGRFTISRDNSKNTVYLQMNSLRPEDTAVYYCNARISAGTAFWLWSDYEYWGLGTLVTVSS | 14.6 | 74.2 | 0.00758 | 102000 | 66 |  | IC50 [3]: 230 nM |
| 55B04 (VHH) VHH: EVQLVESGGGLVQPGGSLRLSCAASGINFRFNSMGWWRRRAPGKEREWVAAITSGDITNYRDSVRGRFTISRDNVKNTVYLQMNTLKLEDTAVYYCNTFPPIADYWGLGTQVTVSS | 51.2 | 15.8 | 0.00794 | 504000 | 1300 |  | IC50 [3]: 55 nM |
| 14D09-35GS-57A07 (bispecific antibody, also made with FLAG3-His6 in Pichia; also called CXCR4#1-CD123#1; 14D09-57A07) EVQLVESGGGLVQAGGSLRLSCVASGISSSKRNMGWYRQAPGKQRESVATISSGGNKDYTDAVKDRFTISRDTTKNTVYLQMNSLKPEDTAVYYCKIEAGTGWATRRGYTYWGQGTLVTVSSGGGGSGGGGSGGGGSGGGGSGGGGSGGGGSGGGGSEVQLVESGGGLVQAGGSLRLSCAASGSIFSGNVMGWYRRQAPGKEREWVAAIASGGSIYYRDSVKGRFTISRDNAKNTVYLQMNSLKPEDTAVYYCNSHPPTLPYWGQGTLVTVSS |  |  |  |  |  | 15 | EC50 (read off the curve) [5]: ~0.5 nM; Fold inc. vs CXCR4#1, Jurkat E6-1 [6]: 0.69 fold; Fold inc. vs CXCR4#1, MOLM-13 [6]: 2.39 fold; IC50, CXCL-12 chemotaxis, MOLM-13 [6]: 3.6 nM |
| cAbLys3 (VHH, also called irrelevant control Nanobody directed to lysozyme) VHH: DVQLQASGGGSVQAGGSLRLSCAASGYTIGPYCMGWFRQAPGKEREGVAAINMGGGITYYADSVKGRFTISQDNAKNTVYLLMNSLEPEDTAIYYCAADSTIYASYYECGHGLSTGGYGYDSWGQGTQVTVSS |  |  |  |  |  |  | binding result [9]: no binding (tested: 250 nM) |
| CEA#2 (VHH, also called T023200002; humanised variant of NbCEA5) VHH: EVQLVESGGGLVQPGGSLRLSCAASGDTYGSYWMGWFRQAPGQGLEAVAAINRGGGYTVYADSVKGRFTISRDNSKNTLYLQMNSLRAEDTAVYYCAASGVLGGLHEDWFNYWGQGTLVTVSS |  |  |  |  |  |  | Kd [10]: 1.9 nM; koff [10]: 0.0025 s⁻¹; kon [10]: 1.3e+06 M⁻¹ s⁻¹ |
| 281F12-35GS-57A07 (bispecific antibody, FLAG3-His6 also made; also called CXCR4#2-CD123#1; 281F12-57A07) EVQLVESGGGLVQAGDSLRLSCAASGRAFSRYAMGWFRQAPGKEREFVAAIGWGPSKTNYADSVKGRFTISRDNAKNTVYLQMNTLKPEDTAVYSCAAKFVNTDSTWSRSEMYTYWGQGTLVTVSSGGGGSGGGGSGGGGSGGGGSGGGGSGGGGSGGGGSEVQLVESGGGLVQAGGSLRLSCAASGSIFSGNVMGWYRRQAPGKEREWVAAIASGGSIYYRDSVKGRFTISRDNAKNTVYLQMNSLKPEDTAVYYCNSHPPTLPYWGQGTLVTVSS |  |  |  |  |  | 38 | EC50 (read off the curve) [5]: ~0.5 nM; Fold inc. vs CXCR4#2, Jurkat E6-1 [6]: 2.55 fold; Fold inc. vs CXCR4#2, MOLM-13 [6]: 12.6 fold; IC50, CXCL-12 chemotaxis, MOLM-13 [6]: 6.83 nM |
| 03F11-25GS-281F12 (bispecific antibody) EVQLVESGGGSVQPGGSLTLSCGTSGRTFNVMGWFRQAPGKEREFVAAVRWSSTGIYYTQYADSVKSRFTISRDNAKNTVYLEMNSLKPEDTAVYYCAADTYNSNPARWDGYDFRGQGTQVTVSSGGGGSGGGGSGGGGSGGGGSGGGGSEVQLVESGGGLVQAGDSLRLSCAASGRAFSRYAMGWFRQAPGKEREFVAAIGWGPSKTNYADSVKGRFTISRDNAKNTVYLQMNTLKPEDTAVYSCAAKFVNTDSTWSRSEMYTYWGQGTQVTVSS |  |  |  |  |  |  | IC50, HIV-1 BaL (R5), PBMC [7]: 383 nM; IC50, HIV-1 NL4.3 (X4), MT-4 [7]: 9.22 nM; IC50, HIV-1 NL4.3 (X4), PBMC [7]: 8.67 nM; IC50, HIV-1 NL4.3 (X4), U87 [7]: > 3330 nM |
